Laboratory results published in patent US20200338203A1 (Bicycle, published 2020).
Numbered stars: 1 amine (or outer) side, 2 acyl side, 3 side chain; on linkers, the order of the positions; unused ones are H or OH. Bridge positions count the residues as written; N and C are the ends. Square brackets hold non-standard residues; d marks the D form. Ends that are not written are not given here. Dip = N[C@H](C(=O)O)C(c1ccccc1)c1ccccc1; 1Nal = N[C@@H](Cc1cccc2ccccc12)C(=O)O; TBMB = c1c(C[*:1])cc(C[*:3])cc1C[*:2]; Ala(cPr) = N[C@@H](CC1CC1)C(=O)O; hArg = N=C(N)NCCCC[C@H](N)C(=O)O; Gly(cPr) = N[C@H](C(=O)O)C1CC1; Cba = N[C@@H](CC1CCC1)C(=O)O; Tle = CC(C)(C)[C@H](N)C(=O)O; Aib = CC(C)(N)C(=O)O; Sar = CNCC(=O)O

Target: T1, Human EphA2 (Ecto) (Human, UniProt P29317 24-537)
T1 construct: extracellular domain
T1 sequence (P29317 24-537): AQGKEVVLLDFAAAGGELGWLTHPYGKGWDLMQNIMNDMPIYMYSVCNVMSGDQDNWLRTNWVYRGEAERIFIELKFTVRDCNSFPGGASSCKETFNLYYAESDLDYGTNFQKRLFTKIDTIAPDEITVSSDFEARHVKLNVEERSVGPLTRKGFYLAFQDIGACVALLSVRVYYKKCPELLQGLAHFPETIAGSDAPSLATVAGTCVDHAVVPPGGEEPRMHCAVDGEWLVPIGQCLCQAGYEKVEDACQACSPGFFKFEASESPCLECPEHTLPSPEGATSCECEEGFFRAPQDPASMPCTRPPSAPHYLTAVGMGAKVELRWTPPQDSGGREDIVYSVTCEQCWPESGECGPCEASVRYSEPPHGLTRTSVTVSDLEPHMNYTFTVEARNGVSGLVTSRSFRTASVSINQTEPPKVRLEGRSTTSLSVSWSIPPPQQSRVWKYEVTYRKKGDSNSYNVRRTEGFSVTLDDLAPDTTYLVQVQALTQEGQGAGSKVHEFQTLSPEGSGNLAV
Experiment: FP competition; competitor Compound 18
Method: Peptides without a fluorescent tag were tested in competition with a peptide with a fluorescent tag and a known Kd (Table 2). Peptides were diluted to an appropriate concentration in assay buffer as described in the direct binding assay with a maximum of 5% DMSO, then serially diluted 1 in 2. Five μL of diluted peptide was added to the plate followed by 10 μL of human or mouse EphA2 (Table 1) at a fixed concentration which was dependent on the fluorescent peptide used (Table 2), then 10 μL fluorescent peptide added. Measurements were conducted as for the direct binding assay, however the gain was determined prior to the first measurement.

Binder	Ki
ADVHCPWGPFWCPVN[dA]PGCA (linker 5-12-19 via TBMB) [Compound 156]	14.9 nM
ADVHCP[Dip]GPFWCPVNRPGCA (linker 5-12-19 via TBMB) [Compound 149]	52.8 nM
Ac-[Sar][Sar]A[dD]VTCP[1Nal]GPFWCPVNRPGC (linker 7-14-21 via TBMB) [Compound 170]	0.6 nM
Ac-[Sar][Sar]A[dD][Gly(cPr)]TCPWGPFWCPVNRPGC (linker 7-14-21 via TBMB) [Compound 162]	2.55 nM
Ac-[Sar][Sar]A[dD][dD]TCPWGPFWCPVNRPGC (linker 7-14-21 via TBMB) [Compound 159]	2.85 nM
Ac-[Sar][Sar]ADVHCPWGPFWCPVNRPGC (linker 7-14-21 via TBMB) [Compound 148]	1.2 nM
Ac-[Sar][Sar]ADVTCPWGPFWCPVNRPGC (linker 7-14-21 via TBMB) [Compound 157]	0.91 nM
Ac-[Sar][Sar]A[dD][Ala(cPr)]TCPWGPFWCPVNRPGC (linker 7-14-21 via TBMB) [Compound 161]	4.44 nM
Ac-[Sar][Sar]AHDVPCPWGPFWCPVNRPGC (linker 8-15-22 via TBMB) [Compound 193]	0.59 nM
Ac-[Sar][Sar]A[dD]VTCPWGP[hArg]WCPVNRPGC (linker 7-14-21 via TBMB) [Compound 171]	4.88 nM
Ac-[Sar][Sar]AD[Tle]TCPWGPFWCPVNRPGC (linker 7-14-21 via TBMB) [Compound 164]	2.25 nM
Ac-[Sar][Sar]A[dD]VTCPWGPNWCPVNRPGC (linker 7-14-21 via TBMB) [Compound 172]	3.96 nM
Ac-[Sar][Sar]A[dD]VTCPWGPAWCPVNRPGC (linker 7-14-21 via TBMB) [Compound 173]	6.69 nM
Ac-[Sar][Sar]A[dD]VTCPWGPFWCPLNRPGC (linker 7-14-21 via TBMB) [Compound 174]	9.1 nM
[Sar][Sar]ACPWGPFWCPVNRP[dA]C (linker 4-11-18 via TBMB) [Compound 112]	89 nM
Ac-[Sar][Sar]A[dH]DVPCPWGPFWCPVNRPGC (linker 8-15-22 via TBMB) [Compound 196]	0.95 nM
ADVHCPWG[Aib]FWCPVNRPGCA (linker 5-12-19 via TBMB) [Compound 153]	0.51 nM
ADVHCP[1Nal]GPFWCPVNRPGCA (linker 5-12-19 via TBMB) [Compound 150]	0.12 nM
[Sar][Sar]ACP[1Nal]GPFWCP[Tle]N[hArg]PGC (linker 4-11-18 via TBMB) [Compound 130]	0.29 nM
ADVHCPWGPFWCPV[dA]RPGCA (linker 5-12-19 via TBMB) [Compound 155]	2 nM
ADVHCPWAPFWCPVNRPGCA (linker 5-12-19 via TBMB) [Compound 151]	394 nM
ADVHCPWGAFWCPVNRPGCA (linker 5-12-19 via TBMB) [Compound 152]	1.8 nM
Ac-[Sar][Sar]A[dD][Cba]TCPWGPFWCPVNRPGC (linker 7-14-21 via TBMB) [Compound 160]	2.6 nM
[Sar][Sar]ACP[1Nal]GPFWCP[Tle]N[hArg][Aib]GC (linker 4-11-18 via TBMB) [Compound 138]	5.1 nM

Further lines, results first:

Ki	Binder
3.83 nM	Ac-[Sar][Sar]A[dD]VTCPWG[Aib]FWCP[Tle]NR[Aib]GC (linker 7-14-21 via TBMB) [Compound 180]
4.1 nM	Ac-[Sar][Sar]A[dD]DVPCPWGPFWCPVNRPGC (linker 8-15-22 via TBMB) [Compound 200]
20 nM	Ac-[Sar][Sar]A[dH]DVCPWGPFWCPVNRPGC (linker 7-14-21 via TBMB) [Compound 198]
1.78 nM	Ac-[Sar][Sar]A[dD]VTCPWGPFWCPVNRP[dD]C (linker 7-14-21 via TBMB) [Compound 175]
0.32 nM	AHDVPCP[1Nal]GPFWCPVNRPGCA (linker 6-13-20 via TBMB) [Compound 187]
1.3 nM	AHDVPCPWGPF[1Nal]CPVNRPGC (linker 6-13-20 via TBMB) [Compound 189]
3.1 nM	AHDVPCP[1Nal]G[Aib]FWCP[Tle]N[hArg]PGC (linker 6-13-20 via TBMB) [Compound 191]
1.2 nM	[Sar][Sar]A[dH]DVPCPWGPFWCPVNRPGC (linker 8-15-22 via TBMB) [Compound 197]
0.7 nM	AHDVPCP[1Nal]GPFWCP[Tle]NRPGC (linker 6-13-20 via TBMB) [Compound 190]
1.27 nM	[Sar][Sar]AHDVACPWGPFWCPVNRPGC (linker 8-15-22 via TBMB) [Compound 218]
1.3 nM	[Sar][Sar]AHEVPCPWGPFWCPVNRPGC (linker 8-15-22 via TBMB) [Compound 207]
22.5 nM	[Sar][Sar]AHDAPCPWGPFWCPVNRPGC (linker 8-15-22 via TBMB) [Compound 214]
1.8 nM	[Sar][Sar]AHAVPCPWGPFWCPVNRPGC (linker 8-15-22 via TBMB) [Compound 205]
1.01 nM	Ac-[Sar][Sar]AADVPCPWGPFWCPVNRPGC (linker 8-15-22 via TBMB) [Compound 195]
2.17 nM	[dD]VTCPWGPFWCPVNRPGC (linker 4-11-18 via TBMB) [Compound 185]
4.89 nM	Ac-[Sar][Sar]A[dD]VTCPWGPFWCPVN[hArg]P[dD]C (linker 7-14-21 via TBMB) [Compound 176]
2.94 nM	Ac-[Sar][Sar]A[dD]VTCPWG[Aib]F[1Nal]CPVNR[Aib]GC (linker 7-14-21 via TBMB) [Compound 179]
1.2 nM	Ac-[Sar][Sar][dA]HDVPCPWGPFWCPVNRPGC (linker 8-15-22 via TBMB) [Compound 194]
4.43 nM	Ac-[Sar][Sar]A[dD]VTCPWGPFWCPVNR[Aib][dD]C (linker 7-14-21 via TBMB) [Compound 177]
2.4 nM	Ac-[Sar][Sar]A[dD]VTCP[1Nal]G[Aib]FWCPVNR[Aib]GC (linker 7-14-21 via TBMB) [Compound 178]
5.78 nM	Ac-[Sar][Sar]A[dD]DVTCPWGPFWCPVNRPGC (linker 8-15-22 via TBMB) [Compound 281]
1.45 nM	AHDVPCP[1Nal]GPFWCPVNRPGC (linker 6-13-20 via TBMB) [Compound 188]
1.75 nM	AHDVPCP[1Nal]G[Aib]FWCP[Tle]NR[Aib]GC (linker 6-13-20 via TBMB) [Compound 192]
3.35 nM	[Sar][Sar]A[dA]DVPCPWGPFWCPVNRPGC (linker 8-15-22 via TBMB) [Compound 199]
1.37 nM	Ac-[Sar][Sar]A[dD]VTCP[1Nal]G[Aib]F[1Nal]CPVNR[Aib]GC (linker 7-14-21 via TBMB) [Compound 181]
